Test results: the supplement of paper PMC9170038

Columns and labels:
[1] = system: MS2 coat protein; assay: apparent KD of MS2 coat protein; higher = weaker reporter binding; conditions: Eterna round: R101
Description: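 RNA-MaP: designed FMN/MS2 RNA switches (84 nt design region) are transcribed on-chip within common flanks and titrated with SNAP-549-labelled MS2 coat protein (about 1-3000 nM) in 100 mM Tris pH 7.5, 80 mM KCl, 4 mM MgCl2, without or with 200 uM FMN. Median apparent KD per design; activation ratio = KD,OFF / KD,ON.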

[2] = system: MS2 coat protein; assay: apparent KD of MS2 coat protein, switch ON state; designed switch direction (-1 OFF switch, 1 ON switch): 1; higher = weaker reporter binding; conditions: FMN input: 0 or 200 uM; Eterna round: R93 (includes R88 designs)
How it was run: (§1)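 Each design's apparent KD comes from the median of binding-curve fits to its normalised clusters. Those clusters carried RNA switches transcribed on-chip from Illumina sequencing clusters. SNAP-549-labelled MS2 coat protein was titrated onto them in twofold steps (0.7 or 1.5 nM to 3 µM; per step 0.8–1.5 h down to 10–20 min). Conditions were 100 mM Tris-HCl pH 7.5, 80 mM KCl, 4 mM MgCl2, without or with constant ligand.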

[3] = system: MS2 coat protein; assay: apparent KD of MS2 coat protein, switch OFF state (with FMN for OFF switches, without FMN for ON switches); designed switch direction (-1 OFF switch, 1 ON switch): 1; higher = weaker reporter binding; conditions: FMN input: 0 or 200 uM; Eterna round: R93 (includes R88 designs)
How it was run: as §1

UUUAAUAUUAUAGGAUAUGGAUACGAUACGUAUCCAGAAGGGUGAUUAUAAUAUAAUCUAUACAUGAGGAUCACCCAUGUUUAU [AtrosYaY8] (puzzle (switch architecture): Same State NG 1)
apparent KD of MS2 coat protein ([1]; input ligand: FMN 200 uM): 84.8 nM | apparent KD of MS2 coat protein ([1]; input ligand: none): 205 nM

AAUUAAAUCCUAGGAUAUCAGUGGCAAAGCCACUGAGAAGGAGGAUCACCCUUUCAAACGUGACGCUGGAAACAGCGUCACGAA [#SharedSequence - ExNG1-18] (puzzle (switch architecture): Exclusion NG 1)
apparent KD of MS2 coat protein ([1]; input ligand: FMN 200 uM): 444 nM | apparent KD of MS2 coat protein ([1]; input ligand: none): 699 nM

GGAGAUACAUGAGGAUCACCCAUGUAGGAUAUCGGGCCCGUACCCGGCGAAAGCCGGGUACGGGCCGAGAAGGGCGUACACACC [#LOL-4] (puzzle (switch architecture): Small Loop Exclusion NG 3)
apparent KD of MS2 coat protein ([1]; input ligand: FMN 200 uM): 9.27 nM | apparent KD of MS2 coat protein ([1]; input ligand: none): 9.3 nM

GGAUAGGACAGAGGAUAUACGUGCUAGAGAUACUAGCAAAAUAUCCUCACAUGAGGAUCACCCAUGUAGAAGGCUGUCCUAUCG (puzzle (switch architecture): Exclusion NG 2)
apparent KD of MS2 coat protein ([1]; input ligand: FMN 200 uM): 20.1 nM | apparent KD of MS2 coat protein ([1]; input ligand: none): 5.49 nM

ACCAGGAAGAGAGAGGAUAUCCAAAGGAAAACAUGAGGAUCACCCAUGUAAAAGGUAGGAAAUUGGGAGAAGGCUCAAGAGAGAG [salish99-ss2-101]
apparent KD of MS2 coat protein [2]: 26.7 nM | apparent KD of MS2 coat protein [3]: 30.1 nM

GCUGGGCUACACUAGGAUAUGGGUGUCUAAACAUGAGGAUCACCCAUGUGAUGGCAAAACAAAGCUCAGAAGGAGUCGUAGCCCA [Inrionarus]
apparent KD of MS2 coat protein [2]: 14.7 nM | apparent KD of MS2 coat protein [3]: 22.3 nM

AAUAAGACUAGCAAGGAUAUCGAAAACGAGACAUGAGGAUCACCCAUGUAACGAGUAUAAGUAUACGAGAAGGUGCAGGGUGAAA [JR_SS002_Sub303]
apparent KD of MS2 coat protein [2]: 75 nM | apparent KD of MS2 coat protein [3]: 86.7 nM

GAAAAACAUGAGGAUCACCCAUGUGACAACAUGGGAGGAUAUACAUGGACGAUAGUCAAAGUAGAAGGCCUAAAAG [Garnet 63]
apparent KD of MS2 coat protein [2]: 142 nM | apparent KD of MS2 coat protein [3]: 24.4 nM

GAAAAACAUGAGGAUCACCCAUGUGAGAAUAUGGGAGGAUAUACAAAGACGAAAGUCAAAGUAGAAGGCCUAAAAG [Mat - Same State 1 - Eli mod - D6]
apparent KD of MS2 coat protein [2]: 27.6 nM | apparent KD of MS2 coat protein [3]: 94.5 nM

GAGAUACAUGAGGAUCACCCAUGUUGAAAUAUGGGAGGAUAUACAAGGUCGAAAGAUAAGGUAGAAGGCCUAAAAG [LROPPY Same State 1 - v03_deltaG=1.1]
apparent KD of MS2 coat protein [2]: 39.1 nM | apparent KD of MS2 coat protein [3]: 176 nM

AAAAGACAUGAGGAUCACCCAUGUCUUCGGACAUGAGGAUAUGUACAGACUUCGGUCUGUACAGAAGGCAUGAAAA [SS1 - 1065]
apparent KD of MS2 coat protein [2]: 18.5 nM | apparent KD of MS2 coat protein [3]: 48.3 nM

CAGGACCUAGGAUAGGAUAUAUGAAUAAUUACAUGAGGAUCACCCAUGUCCAUUUAUAUGGGAACAUAGAAGGGUUCUGGUUAUG [Mat - Same state - Malcolm Mod - D134]
apparent KD of MS2 coat protein [2]: 20.8 nM | apparent KD of MS2 coat protein [3]: 50.3 nM

GACAGACAUGAGGAUCACCCAUGUACAAACGUACAAGGAUAUGUGUGGAAACCGUACUAUACAGAAGGUGUCUGUC [SS1 - 90]
apparent KD of MS2 coat protein [2]: 126 nM | apparent KD of MS2 coat protein [3]: 90.3 nM

AAAAAACAUGAGGAUCACCCAUGUGACAACAUGGGAGGAUAUACGAAGACGAGAGUCGAAGUAGAAGGCCUAAAAA [Garnet 76]
apparent KD of MS2 coat protein [2]: 98.5 nM | apparent KD of MS2 coat protein [3]: 65.2 nM

AGAAAUAAAAGAGAGGAUAUCCAAAACAAAACAUGAGGAUCACCCAUGUGAAAGAAAAUAAAAUGGGAGAAGGCUCAAAAUAAAG [Topaz 8]
apparent KD of MS2 coat protein [2]: 8.35 nM | apparent KD of MS2 coat protein [3]: 70.4 nM

AAAUUACAUGAGGAUCACCCAUGUAGCGACGUUACAGGAUAUGUGGGUGAAAAUAGCAUGACAGAAGGGUACCGUA [SameState1 Malc#39]
apparent KD of MS2 coat protein [2]: 77 nM | apparent KD of MS2 coat protein [3]: 60.8 nM

AAAACUACAGAUCAGGAUAUGUUUGGGUAAACAUGAGGAUCACCCAUGUGCACCCGAUAAACAACACAGAAGGGAUAACGUGGGA [Soensole]
apparent KD of MS2 coat protein [2]: 12.7 nM | apparent KD of MS2 coat protein [3]: 23.7 nM
